Measurements taken from US20150203577A1 (Chugai, published 2015).

T1: mouse FcγRII extracellular domain, C-terminally His-tagged (mouse, UniProt P08101 30-210)
T1 construct: the whole entry is named; also called mFcγRII; mFcgRII
T1 sequence: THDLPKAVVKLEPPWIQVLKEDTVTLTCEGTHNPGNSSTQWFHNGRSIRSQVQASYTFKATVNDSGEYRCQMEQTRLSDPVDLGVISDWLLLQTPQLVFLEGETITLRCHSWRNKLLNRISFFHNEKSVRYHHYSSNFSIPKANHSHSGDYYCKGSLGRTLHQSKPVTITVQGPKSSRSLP

T2: mouse FcγRIII extracellular domain, C-terminally His-tagged (mouse, UniProt P08508 31-215)
T2 construct: the whole entry is named; also called mFcγRIII; mFcgRIII
T2 chain: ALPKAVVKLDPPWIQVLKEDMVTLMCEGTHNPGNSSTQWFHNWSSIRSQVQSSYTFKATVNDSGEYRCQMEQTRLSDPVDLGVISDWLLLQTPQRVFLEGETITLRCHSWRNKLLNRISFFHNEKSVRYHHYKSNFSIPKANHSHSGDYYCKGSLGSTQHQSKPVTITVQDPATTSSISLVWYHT


Legend:
[1] = molecular target: T1, mouse FcγRII extracellular domain, …; assay: SPR Biacore T200, KD ratio
[2] = molecular target: T2, mouse FcγRIII extracellular domain, …; assay: SPR Biacore T200, KD ratio

Row | Binder | relative mFcγRII-binding activity (mIgG1 = 1) [1] | relative mFcγRIII-binding activity (mIgG1 = 1) [2]
1 | H237-MB657/MRAL-k0 (antibody, mouse IgG1, kappa, copies: 2 + 2) heavy: QVQLQESGPGLVKPSETLSLTCAVSGHSISHDHAWSWVRQPPGEGLEWIGFISYSGITNYNPSLQGRVTISRDNSKNTLYLQMNSLRAEDTAVYYCARSLARTTAMDYWGEGTLVTVSSAKTTPPSVYPLAPGSAAQTNSMVTLGCLVKGYFPEPVTVTWNSGSLSSGVHTFPAVLQSDLYTLSSSVTVPSSTWPSETVTCNVAHPASSTKVDKKIVPRDCGCKPCICEPNEVEFVFIFPPKPKDVLTITLTPKVTCVVVDISKDDPEVQFSWFVDDVEVHTAQTQPREEQFNSTFRSVSELPIMHQDWLNGKEFKCRVNSAAFPAPIEKTISKTKGRPKAPQVYTIPPPKEQMAKDKVSLTCMITDFFPEDITVEWQWNGQPAENYKNTQPIMDTDGSYFVYSKLNVQKSNWEAGNTFTCSVLHEGLHNHHTEKSLSHSPGK light: not shown | 1.77 fold | 0.08 fold
2 | H237-MB705/MRAL-k0 (antibody, mouse IgG1, kappa, copies: 2 + 2) heavy: QVQLQESGPGLVKPSETLSLTCAVSGHSISHDHAWSWVRQPPGEGLEWIGFISYSGITNYNPSLQGRVTISRDNSKNTLYLQMNSLRAEDTAVYYCARSLARTTAMDYWGEGTLVTVSSAKTTPPSVYPLAPGSAAQTNSMVTLGCLVKGYFPEPVTVTWNSGSLSSGVHTFPAVLQSDLYTLSSSVTVPSSTWPSETVTCNVAHPASSTKVDKKIVPRDCGCKPCICEPAEVEGVFIFPPKPKDVLTITLTPKVTCVVVDISKDDPEVQFSWFVDDVEVHTAQTQPREEQFNSTFRSVSELPIMHQDWLNGKEFKCRVNSAAFPAPIEKTISKTKGRPKAPQVYTIPPPKEQMAKDKVSLTCMITDFFPEDITVEWQWNGQPAENYKNTQPIMDTDGSYFVYSKLNVQKSNWEAGNTFTCSVLHEGLHNHHTEKSLSHSPGK light: not shown | 8.71 fold | 0.75 fold
3 | H237-MB704/MRAL-k0 (antibody, mouse IgG1, kappa, copies: 2 + 2) heavy: QVQLQESGPGLVKPSETLSLTCAVSGHSISHDHAWSWVRQPPGEGLEWIGFISYSGITNYNPSLQGRVTISRDNSKNTLYLQMNSLRAEDTAVYYCARSLARTTAMDYWGEGTLVTVSSAKTTPPSVYPLAPGSAAQTNSMVTLGCLVKGYFPEPVTVTWNSGSLSSGVHTFPAVLQSDLYTLSSSVTVPSSTWPSETVTCNVAHPASSTKVDKKIVPRDCGCKPCICEPAEVEAVFIFPPKPKDVLTITLTPKVTCVVVDISKDDPEVQFSWFVDDVEVHTAQTQPREEQFNSTFRSVSELPIMHQDWLNGKEFKCRVNSAAFPAPIEKTISKTKGRPKAPQVYTIPPPKEQMAKDKVSLTCMITDFFPEDITVEWQWNGQPAENYKNTQPIMDTDGSYFVYSKLNVQKSNWEAGNTFTCSVLHEGLHNHHTEKSLSHSPGK light: not shown | 14.1 fold | 0.87 fold
4 | H237-MB658/MRAL-k0 (antibody, mouse IgG1, kappa, copies: 2 + 2) heavy: QVQLQESGPGLVKPSETLSLTCAVSGHSISHDHAWSWVRQPPGEGLEWIGFISYSGITNYNPSLQGRVTISRDNSKNTLYLQMNSLRAEDTAVYYCARSLARTTAMDYWGEGTLVTVSSAKTTPPSVYPLAPGSAAQTNSMVTLGCLVKGYFPEPVTVTWNSGSLSSGVHTFPAVLQSDLYTLSSSVTVPSSTWPSETVTCNVAHPASSTKVDKKIVPRDCGCKPCICQPNEVEFVFIFPPKPKDVLTITLTPKVTCVVVDISKDDPEVQFSWFVDDVEVHTAQTQPREEQFNSTFRSVSELPIMHQDWLNGKEFKCRVNSAAFPAPIEKTISKTKGRPKAPQVYTIPPPKEQMAKDKVSLTCMITDFFPEDITVEWQWNGQPAENYKNTQPIMDTDGSYFVYSKLNVQKSNWEAGNTFTCSVLHEGLHNHHTEKSLSHSPGK light: not shown | 0.51 fold | 0.06 fold
5 | H237-MB710/MRAL-k0 (antibody, copies: 2 + 2) heavy: QVQLQESGPGLVKPSETLSLTCAVSGHSISHDHAWSWVRQPPGEGLEWIGFISYSGITNYNPSLQGRVTISRDNSKNTLYLQMNSLRAEDTAVYYCARSLARTTAMDYWGEGTLVTVSSAKTTPPSVYPLAPGSAAQTNSMVTLGCLVKGYFPEPVTVTWNSGSLSSGVHTFPAVLQSDLYTLSSSVTVPSSTWPSETVTCNVAHPASSTKVDKKIVPRDCGCKPCICEPAEVEQVFIFPPKPKDVLTITLTPKVTCVVVDISKDDPEVQFSWFVDDVEVHTAQTQPREEQFNSTFRSVSELPIMHQDWLNGKEFKCRVNSAAFPAPIEKTISKTKGRPKAPQVYTIPPPKEQMAKDKVSLTCMITDFFPEDITVEWQWNGQPAENYKNTQPIMDTDGSYFVYSKLNVQKSNWEAGNTFTCSVLHEGLHNHHTEKSLSHSPGK light: not shown | 50.8 fold | 1.22 fold
6 | H237-MB713/MRAL-k0 (antibody, mouse IgG1, kappa, copies: 2 + 2) heavy: QVQLQESGPGLVKPSETLSLTCAVSGHSISHDHAWSWVRQPPGEGLEWIGFISYSGITNYNPSLQGRVTISRDNSKNTLYLQMNSLRAEDTAVYYCARSLARTTAMDYWGEGTLVTVSSAKTTPPSVYPLAPGSAAQTNSMVTLGCLVKGYFPEPVTVTWNSGSLSSGVHTFPAVLQSDLYTLSSSVTVPSSTWPSETVTCNVAHPASSTKVDKKIVPRDCGCKPCICEPNEVEAVFIFPPKPKDVLTITLTPKVTCVVVDISKDDPEVQFSWFVDDVEVHTAQTQPREEQFNSTFRSVSELPIMHQDWLNGKEFKCRVNSAAFPAPIEKTISKTKGRPKAPQVYTIPPPKEQMAKDKVSLTCMITDFFPEDITVEWQWNGQPAENYKNTQPIMDTDGSYFVYSKLNVQKSNWEAGNTFTCSVLHEGLHNHHTEKSLSHSPGK light: not shown | 23.5 fold | 2.5 fold
7 | H237-MB708/MRAL-k0 (antibody, mouse IgG1, kappa, copies: 2 + 2) heavy: QVQLQESGPGLVKPSETLSLTCAVSGHSISHDHAWSWVRQPPGEGLEWIGFISYSGITNYNPSLQGRVTISRDNSKNTLYLQMNSLRAEDTAVYYCARSLARTTAMDYWGEGTLVTVSSAKTTPPSVYPLAPGSAAQTNSMVTLGCLVKGYFPEPVTVTWNSGSLSSGVHTFPAVLQSDLYTLSSSVTVPSSTWPSETVTCNVAHPASSTKVDKKIVPRDCGCKPCICEPAEVEPVFIFPPKPKDVLTITLTPKVTCVVVDISKDDPEVQFSWFVDDVEVHTAQTQPREEQFNSTFRSVSELPIMHQDWLNGKEFKCRVNSAAFPAPIEKTISKTKGRPKAPQVYTIPPPKEQMAKDKVSLTCMITDFFPEDITVEWQWNGQPAENYKNTQPIMDTDGSYFVYSKLNVQKSNWEAGNTFTCSVLHEGLHNHHTEKSLSHSPGK light: not shown | 0.28 fold | 0.03 fold
8 | H237-MB709/MRAL-k0 (antibody, mouse IgG1, kappa, copies: 2 + 2) heavy: QVQLQESGPGLVKPSETLSLTCAVSGHSISHDHAWSWVRQPPGEGLEWIGFISYSGITNYNPSLQGRVTISRDNSKNTLYLQMNSLRAEDTAVYYCARSLARTTAMDYWGEGTLVTVSSAKTTPPSVYPLAPGSAAQTNSMVTLGCLVKGYFPEPVTVTWNSGSLSSGVHTFPAVLQSDLYTLSSSVTVPSSTWPSETVTCNVAHPASSTKVDKKIVPRDCGCKPCICEPAEVETVFIFPPKPKDVLTITLTPKVTCVVVDISKDDPEVQFSWFVDDVEVHTAQTQPREEQFNSTFRSVSELPIMHQDWLNGKEFKCRVNSAAFPAPIEKTISKTKGRPKAPQVYTIPPPKEQMAKDKVSLTCMITDFFPEDITVEWQWNGQPAENYKNTQPIMDTDGSYFVYSKLNVQKSNWEAGNTFTCSVLHEGLHNHHTEKSLSHSPGK light: not shown | 0.61 fold | 0.04 fold
